Substitutions are numbered along the chain they refer to.
B1: 14Tigit-1-1 mouse monoclonal antibody (antibody, V domains shown)
VH: DVQLQESGPGLVKPSQSLSLTCTVTGYSITSDYAWNWIRQFPGNKLEWMGYISYSGSTRSNPSLKSRISITRDTSKNQFFLQLNSMTAEDTATYYCGGWEVRNYYAMDYWGQGTSVTVSS
VL: DIVMTQSHKFMSTSVGDRVSITCKASQHVSTAVAWYQQKPGQSPKLLIYSASYRYTGVPDRFTGSGSGTDFTFTISSVQAEDLAVYYCQQHYNTPWTFGGGTKLEIKR
notes: Mouse monoclonal antibody from hybridoma
B2: Tigit-5 mouse monoclonal antibody (antibody, V domains shown)
VH: QVQLQQPGAELVRPGASVKLSCKASGYSFTSYWMNWVKQRPGQGLEWIGMIRPSDSETRLNQMFKDKATLTVDKSSSTAYMQLSSPTSDDSAVYYCAGIHDYGHGAYWGQGTLVTVSA
VL: DIQMIQSPASLSVSVGETVTITCRASENIYSNLAWYQQKQGKSPQLLVYAASHLPDGVPSRFSGSGSGTQYSLKINSLQSEDFGSYYCQHFWGTPRTFGGGTKLEIKR
notes: as for B1
B3: 3Tigit-16 mouse monoclonal antibody (antibody, V domains shown)
VH: EVQLQQSGPELVKPGASVKMSCKASGFTFTDYFMDWVKQSRGASFEWIGRLNPNNGRTSYNQKFKGKATLTVDKSSSTAYMELNSLTSEDSAVYYCARGDLGRWYFDVWGAGTTVTVSS
VL: QIVLTQSPAIMSASPGEKVTMTCSASSSVSYMHWYQQKSGTSPKRWIYDTSKLASGVPTRFSGSGSGTSYSLTISSMEAEDAASYFCQQWSSNSLTFGAGTKLELKR
notes: as for B1
B4: 3Tigit-29 mouse monoclonal antibody (antibody, V domains shown)
VH: EVQLQQSGPELVKPGASVKISCKASGYTFTDYNMHWVKQSLGKSLEWIGYVNSFNGNTGYSQKFKSKVTLTVDRSSRTAYMDLRSLTSEDSAVFYCARSSRGGFAYWGQGTLVTVSA
VL: B3 VL with T59A, G65V, S84T, F86Y
notes: as for B1
B5: 3Tigit-12 mouse monoclonal antibody (antibody, V domains shown)
VH: QVQLQQSGAELVRPGTSVKMSCKAAGYTFTNYWIGWVKQRPGHGLEWIGDIYPGGGYTNYDEKFKGKATLTADTSSRTAYMQLSSLTSEDSAIYHCVNGGYGSTYGYFDVWGAGTTVTVSS
VL: DIVMSQSPSSLPVSVGEKVTMSCKSSQSLLFSSDQKNYLAWYQQKPGQSPKLLIYWASTRESGVPDRLTGSGSGTDFTLTISSVKAEDLAVYYCQQYHKYPFTFGGGTKLEIKR
notes: as for B1

How the values were obtained:
[1] = biological target: T1, human Tigit extracellular domain recombinant protein hTigit-his (self-produced) (human, UniProt Q495A1 22-141); assay: BLI (ForteBIO QKe), hTigit-his on anti-Penta-HIS sensor, antibody in solution
T1 construct: extracellular domain; Self-produced; used in the KD analysis of Embodiment 4; also called human Tigit recombinant protein; not shown: his tag
T1 sequence (looked up): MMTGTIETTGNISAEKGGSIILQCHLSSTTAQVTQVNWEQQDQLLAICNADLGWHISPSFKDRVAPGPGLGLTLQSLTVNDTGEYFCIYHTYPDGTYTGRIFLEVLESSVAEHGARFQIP
Protocol: Binding kinetic constant analysis was performed on an anti-hTigit antibody and hTigit with an MD ForteBIO QKe platform.

[2] = biological target: T2, full-length human TIGIT on cells (human, UniProt Q495A1 22-244); assay: FACS blocking: antibody on CHO-hTIGIT cells, then hPVR-hFc, PE anti-human IgG Fc; blocked ligand hPVR-hFc
T2 construct: whole, on cells; The same protein is used for CHO-hTIGIT, PBMC and NK92-hTIGIT; the cells are named under assay; also called CHO-hTIGIT; hTIGIT
T2 sequence (looked up): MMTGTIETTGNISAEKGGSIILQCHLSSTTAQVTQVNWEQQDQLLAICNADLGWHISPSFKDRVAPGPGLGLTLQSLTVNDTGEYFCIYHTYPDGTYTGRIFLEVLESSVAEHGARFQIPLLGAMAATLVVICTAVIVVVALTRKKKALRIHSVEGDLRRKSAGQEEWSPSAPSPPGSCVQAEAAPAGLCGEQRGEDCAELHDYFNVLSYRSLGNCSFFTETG
Protocol: The CHO-engineered cells CHO-hTIGIT cells recombinantly expressing full-length human TIGIT were counted, and centrifugated at 300 g for 5 min, resuspended with an FCM buffer, and cell density was adjusted to 4E+06 cell/mL for later use. […] According to an experimental design, in each well, 50 μL of the antibody and 50 μL of the cell (the volume of each cell added into a 96-well V-shaped plate being 2E+05 cell/well) were respectively added in the 96-well V-shaped plate; and incubation was performed in dark on ice for 30 min. The ligand protein was added to the 96-well V-shaped plate (in 50 μL/well); and incubation was performed in dark on ice for 30 min. Centrifugation (300 g/5 min) was performed; supernatant was discarded; 200 μL of the FCM buffer was added for washing once; centrifugation (300 g/5 min) was performed; and the supernatant was discarded. Secondary antibodies (PE anti-human IgG Fc, 1:500 dilution) were added to the 96-well V-shaped plate (in 100 μL/well); and incubation was performed in dark on ice for 30 min. Centrifugation (300 g/5 min) was performed; supernatant was discarded; 200 μL of the FCM buffer was added for washing once; centrifugation (300 g/5 min) was performed; and the supernatant was discarded. 100 μL of the 1×PBS was added for resuspending, and on-machine detection was performed.

hTIGIT-hFc = biological target: T3, hTIGIT-hFc (human, UniProt Q495A1 22-141); assay: FACS blocking: antibody preincubated with hTIGIT-hFc, then CHO-hPVR cells, PE anti-human IgG Fc; blocked partner PVR on cells
T3 construct: also called antigen protein hTIGIT-hFc; human TIGIT recombinant protein carrying a human Fc tag; not shown: human Fc tag
T3 sequence (looked up): T1 sequence (looked up)
Protocol: The CHO-engineered cells CHO-hPVR cells recombinantly expressing full-length human PVR were counted centrifugated at 300 g for 5 min, resuspended with an FCM buffer, the cells were added to the 96-well V-shaped plate; the volume of each cell added into a 96-well V-shaped plate was 2E+05 cell/well (being added in 50 μL/well); and incubation was performed in dark on ice for 30 min. Centrifugation (300 g/5 min) was performed; supernatant was discarded; 200 μL of the FCM buffer was added for washing once; centrifugation (300 g/5 min) was performed; and the supernatant was discarded. Secondary antibodies (PE anti-human IgG Fc, 1:500 dilution) were added to the 96-well V-shaped plate (in 100 μL/well); and incubation was performed in dark on ice for 30 min. Centrifugation (300 g/5 min) was performed; supernatant was discarded; 200 μL of the FCM buffer was added for washing once; centrifugation (300 g/5 min) was performed; and the supernatant was discarded. 100 μL of the 1×PBS was added for resuspending, and on-machine detection was performed.

[3] = biological target: T2, full-length human TIGIT on cells; assay: FACS titration on CHO-hTIGIT cells; table under the plot, unit taken from the x axis Log[nM]
Protocol: The CHO-engineered cells CHO-hTIGIT cells recombinantly expressing full-length human TIGIT to be detected were counted, centrifuged at 300 g for 5 min, resuspended in an FCM buffer and cell density was adjusted to 4E+06 cell/mL for later use. A sample to be detected (including a positive control antibody and a mouse monoclonal antibody) was diluted with the FCM buffer to 20 μg/mL, and then the FCM buffer was used to perform 3× serial dilutions of 12 concentration points; and the isotype control antibody was diluted with the FCM buffer to 20 μg/mL. According to an experimental design, in each well, 50 μL of the antibody and 50 μL of the cell (the amount of each cell added into a 96-well V-shaped plate being 2E+05 cells/well) were respectively added in the 96-well V-shaped plate; and incubation in dark was performed on ice for 30 min. Centrifugation (300 g/5 min) was performed; supernatant was discarded; 200 μL of the FCM buffer was added for washing once; centrifugation (300 g/5 min) was performed; and the supernatant was discarded. […] Centrifugation (300 g/5 min) was performed; supernatant was discarded; 200 μL of the FCM buffer was added once for washing once; centrifugation (300 g/5 min) was performed; and the supernatant was discarded. 100 μL of the 1×PBS was added for resuspending, and on-machine detection was performed.

[4] = biological target: T4, human Tigit extracellular domain recombinant protein hTigit-his (Acrobiosystem, Cat.TIT-H2H3) (human, UniProt Q495A1 22-141); assay: BLI epitope binning (ForteBIO QKe), hTigit-his on anti-Penta-HIS sensor; competitor R0300
T4 construct: extracellular domain; Bought; not shown: his tag
T4 sequence (looked up): T1 sequence (looked up)
Protocol: Epitope competition analysis was performed on an anti-human TIGIT antibody with an MD ForteBIO QKe platform. An experimental method included: a human Tigit extracellular domain recombinant protein hTigit-his (Acrobiosystem, Cat.TIT-H2H3, lot-1336-76GF1-F9) carrying a his tag was diluted with an equilibration buffer (1×PBS+0.02% Tween 20), until the final concentration was 1.5 μg/ml. The anti-human Tigit antibody was diluted with the equilibration buffer (1×PBS+0.02% Tween 20), the final concentration being 5 μg/ml. After an anti-Penta-HIS biosensor (ForteBIO, Cat. 18-5122) was fully hydrated, first the hTigit-his recombinant protein was solidified for 180 seconds, then equilibrated for 30 seconds, and bound to the first anti-human Tigit antibody for 180 seconds, then equilibrated for 30 seconds, and then bound to the second anti-human Tigit antibody, binding time being 300 seconds. The whole reaction was performed at 25° C. and 1000 rpm; and finally, Octet analysis software was used to perform epitope binning analysis.

| Binder | Kd [1] [nM] | IC50 (read off the curve) [2] [nM] | IC50 (read off the curve) (hTIGIT-hFc) [nM] | EC50 [3] [nM] | epitope binning signal (name and unit not given) [4] |
| --- | --- | --- | --- | --- | --- |
| B1 | 0.172 | – | – | – | – |
| B2 | 0.0605 | ~0.3 | ~1 | 0.256 | 0.668 |
| B3 | 0.202 | ~0.3 | ~1 | 0.294 | 0.0157 |
| B4 | 0.155 | ~0.3 | ~1 | 0.31 | 0.0254 |
| B5 | 0.119 | – | – | – | 0.0196 |

From patent US20240002500A1 (GUANGDONG FAPON BIOPHARMA, published 2024)
